A short description of the series: two-colour ID-FRAP, CHO-K1 large ER inclusions. The settings on record: glycan lost; control: YFP-Z coexpressed with HaloTag-CRT.

In the case of “Z-α1-antitrypsin: YFP-ZN46A,N83A,N247A (GlycMut)”, the “other: calreticulin-driven immobilisation in ER inclusions, other: % cells with immobile YFP-Z” value is recorded as “abolishes”.
